We go through one molecule from patent publication US20260097076A1 (ELPIS BIOPHARMACEUTICALS, published 2026).

In general, EC50 refers to the midpoint of the concentration-response curve. A low value points to a more potent agent.

Test [1] concerns the target T1, Transmembrane activator and CAML interactor (TACI) on cells (UniProt O14836 1-293, limits assumed).
T1 construct: whole, on cells; also called tumor necrosis factor receptor superfamily member 13B (TNFRSF13B)
T1 sequence (looked up): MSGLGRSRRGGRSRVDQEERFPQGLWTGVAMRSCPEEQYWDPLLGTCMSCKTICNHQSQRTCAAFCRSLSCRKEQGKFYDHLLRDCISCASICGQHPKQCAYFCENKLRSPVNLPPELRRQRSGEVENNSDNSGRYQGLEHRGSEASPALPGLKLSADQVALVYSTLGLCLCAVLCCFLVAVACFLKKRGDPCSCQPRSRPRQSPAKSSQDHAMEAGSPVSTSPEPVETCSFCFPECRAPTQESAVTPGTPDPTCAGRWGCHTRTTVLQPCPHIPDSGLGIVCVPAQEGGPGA
Description: flow cytometry on MM1S cells (endogenous TACI).

For test [2], the target named is T2, soluble recombinant TACI (UniProt O14836 1-165, limits assumed).
T2 construct: Immobilized on a 384 well plate; construct not described
T2 sequence (looked up): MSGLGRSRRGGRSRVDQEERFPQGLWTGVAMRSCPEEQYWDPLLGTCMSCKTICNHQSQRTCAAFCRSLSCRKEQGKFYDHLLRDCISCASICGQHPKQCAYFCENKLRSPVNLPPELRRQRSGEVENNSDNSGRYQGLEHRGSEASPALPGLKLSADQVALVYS
The experiment in a line: ELISA, recombinant TACI immobilized on 384 well plate. The method, then: Purified anti-TACI scFvs were subjected to ELISA binding assay. Recombinant TACI and negative protein were immobilized on the 384 well plate. 200 nM of anti-TACI scFv clones were serial diluted and tested for binding in the assay as described above.

Test [3] addresses T1, Transmembrane activator and CAML …. Description: flow cytometry on JVM2 cells (endogenous TACI). The method, then: (§1) Cells were spun down at 1200 rpm for 6 minutes at 4° C. to remove primary antibodies. Cells were then washed once with 200 μL of full medium per well. Samples were detected with premixed anti-His Biotin Streptavidin Alexa fluor 647 by adding 100 μL of diluted secondary antibody and incubated at 4° C. for 30 minutes in the dark. Samples were spun down at 1200 rpm for 5 minutes at 4° C. and washed twice with 200 μL of 1×PBS per well. Reconstituted samples in 200 μL of 1×PBS and read on Attune NxT cytometer. Analysis was done by Attune NxT software plotting the overlaying the histogram of anti-BCMA scFvs binding onto both negative and target cell lines. […] The BCMA cell binding affinity for exemplary anti-BCMA antibodies (in scFv format) was also generated with serial diluted scFvs as described above.
(§2) Anti-TACI scFv binders have been identified through Anti-TACI supernatant FACS screening assay with JVM2, MM1.R and RPMI8226 cell lines as described in above supernatant FACS screening assay. 200 nM of purified scFvs were subjected into FACS binding assay with TACI negative cell lines K562, H929 and TACI expressing cancer cell lines of JVM2, MM1.R, RPMI8226. The assay procedure and data analysis were described in Example 1 above.

The target is the same in test [4]. Description: flow cytometry on RPMI8226 cells (endogenous TACI). The method, then:
as §1, §2

Test [5] shares this target. Description: flow cytometry on MM1R cells (endogenous TACI). The method, then: as §1, §2
For orientation: Flow cytometry measures light scatter and fluorescence of single cells or particles in a stream.

B1: TC-03 (anti-TACI antibody in scFv format) (scFv, not shown: small tags and cut ends)
scFv: EVQLVESGGGLVQPGGSLRLSCATSGFTVNSDYMSWVRQSPEKGLEWVSFIYRGGSTYYADSVKGRFTVSRDTSKNTLYLQMNSLRVEDTAVYYCARGLGSSSDYWGQGTLVTVSSGGGGSGGGGSGGGGSSYELTQPHSVSESPGKTVTISCTRSSGSIANNYVQWYRHRPGSAPSTVIFEDDHRPSEVPDRFSGSIDSSSNSASLTISGLKTEDEADYYCQSYDGIDHYVFGTGTKLTVL
notes: Human scFv from mRNA display (live cell selections), VH-(G4S)3-VL
Consider B1, for which the EC50 in test [1] was 46.7 nM; in test [3] it was 26.8 nM; in test [4] it was 830 nM; in test [5], 14 nM. Moreover, the binding result in test [2] is given as “no binding (tested: 200 nM, serial diluted)”.
